Substrate: O=C(O)[C@H]1NCC[C@@H]1O
Assay: purified protein
Type: biochemical, Homo sapiens
Conditions: oxidizing conditions, without DTT; 1xPBS; substrate-inhibition fit; with 1 mM DTT a separate lower KM is reported; substrate named only hydroxyproline in methods

B1: human trans-3-Hydroxy-L-proline dehydratase (hL3HYPDH) (Homo sapiens) (protein)
chain: MESALAVPRLPPHDPGTPVLSVVDMHTGGEPLRIVLAGCPEVSGPTLLAKRRYMRQHLDHVRRRLMFEPRGHRDMYGAVLVPSELPDAHLGVLFLHNEGYSSMCGHAVLALGRFALDFGLVPAPPAGTREARVNIHCPCGLVTAFVACEDGRSHGPVRFHSVPAFVLATDLMVDVPGHGKVMVDIAYGGAFYAFVTAEKLGLDICSAKTRDLVDAASAVTEAVKAQFKINHPDSEDLAFLYGTILTDGKDAYTKEPTTNICVFADEQVDRSPTGSGVTARIALQYHKGLLELNQMRAFKSSATGSVFTGKAVREAKCGDFKAVIVEVSGQAHYTGTASFIIEDDDPLRDGFLLK
notes: recombinant, cloned in pET28b, E. coli BL21(DE3), His-Trap then Superdex 200; homodimer; crystal model residues 4-354; Cys104-Cys137 intramolecular disulphide
  Km: 416.7 µM
